Reference: patent US20260078159A1 (CUGENE, published 2026)
Changes are numbered by the printed parent chain. Names may count otherwise. “And” between values parts separate entries of the source, which are not always exact repeats. Identical values can stand only once. Like-named read-outs stand apart in the source and are kept apart here.

Experiments:
human PD1 on cells [1] = biological target: T1, human PD1 on cells (human, UniProt Q15116 25-288); assay: cell-based or functional assay
[2] = biological target: T2, recombinant human PD1 protein (human, UniProt Q15116 25-170, limits assumed); assay: binding ELISA, plate-coated recombinant human PD1
T2 sequence (Q15116 25-170 limits assumed): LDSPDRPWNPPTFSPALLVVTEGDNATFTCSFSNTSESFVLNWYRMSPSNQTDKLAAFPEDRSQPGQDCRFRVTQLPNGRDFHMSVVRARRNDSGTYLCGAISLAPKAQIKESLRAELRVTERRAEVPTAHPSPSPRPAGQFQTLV
Protocol: Antibodies of the invention were tested for their antigen binding activity by well-known methods such as enzyme-linked immunosorbent assay (ELISA). Briefly, Nunc Maxisorp plates (ThermoFisher) were coated with recombinant human PD1 protein in bicarbonate buffer, pH 9.4 (ThermoFisher), overnight at 4° C., using 1 μg of antigen per well (100 μL/well). After triple washing with PBS/0.05% Tween 20, plates were incubated with SuperBlock (ThermoFisher) for two hours at room temperature to block nonspecific binding. The PD1 antibodies, serially diluted three-fold with blocking buffer (PBS with 1% bovine serum albumin) were added to the plates (100 μL/well) post washing and incubated at room temperature for one hour. After another washing, antibodies were detected by incubating with a horseradish peroxidase (HRP)-conjugated goat anti-human IgG Fc antibody (ThermoFisher) diluted 1:5000 in blocking buffer (100 μL/well) for one hour at room temperature. After a final wash, TMB substrate (ThermoFisher) at 100 μL/well was added. Plates were sealed and left to incubate in dark for 5-20 minutes. The reaction was stopped by adding 2N sulfuric acid (Ricca Chemical) (50 μL/well), and the absorbance was measured at 450 nm with a plate reader. The curves were plotted, and the half-maximal effective concentration (EC₅₀) values were calculated using GraphPad Prism software.

human PD1 on cells [3] = biological target: T1, human PD1 on cells; assay: flow cytometry on PD1+ HEK293 cells, MFI
Protocol: (§1) Additionally, HEK 293T cells stably expressing human PD1 gene (Crown Bioscience) was used to determine the cell-based binding strength of the optimized PD1 antibodies by flow cytometry. After harvesting, HEK293-hPD1 cells were seeded into a 96-well U-bottom plate at 1×10⁵ cells/well (100 μL), incubated with Fc block (1:50) for 20 minutes at 4° C., and subsequently washed with FACS buffer (PBS, 1% FBS). Cells were then treated with three-fold serial dilutions of each antibody at concentrations ranging from 0.01-100 nM in FACS buffer for 30 minutes at 4° C. Subsequently, cells were washed twice with FACS buffer to remove unbound molecules, and 40 µL of the 1:100 diluted PE-labeled goat anti-human Fc secondary antibody (eBiosciences) was added to the cells. Following a 30-minute incubation at 4° C. and another double wash with FACS buffer, antibodies bound to the cells were detected with PE-labeled secondary antibody by flow cytometry (BD ACCURI-C6), and EC₅₀ values were calculated using GraphPad Prism software.

human PD1 on cells [4] = biological target: T1, human PD1 on cells; assay: flow cytometry on PD1+ HEK293 cells, % positive cells
Protocol: as §1

human PD1 on cells [5] = biological target: T1, human PD1 on cells; assay: cell-based or functional assay; remark: listed apart in the source
human PD1 on cells [6] = biological target: T1, human PD1 on cells; assay: cell-based or functional assay; remark: listed apart in the source
[7] = biological target: T2, recombinant human PD1 protein; assay: competition ELISA, PD1 coated, biotinylated human PD-L1-Fc at 0.5 µg/mL as competitor
Protocol: A non-targeting germline antibody, P-1260 (SEQ ID NOS: 171, 172 and 173) was included as the negative control. The binding ELISA procedures were outlined in Example 3. The competition ELISA followed a similar protocol. […] After 1-hour incubation at 37° C., HRP-conjugated Streptavidin (ThermoFisher) diluted to 0.1 μg/ml were added to the plate and incubate at 37° C. for 1 hour. The plate was subsequently developed using TMB (ThermoFisher) substrate. Absorbance readings were taken at 450 nm, with 630 nm as the reference wavelength. The half-maximal inhibitory concentrations (IC50) values were deduced using GraphPad Prism software.

T1 sequence (Q15116 25-288 limits assumed): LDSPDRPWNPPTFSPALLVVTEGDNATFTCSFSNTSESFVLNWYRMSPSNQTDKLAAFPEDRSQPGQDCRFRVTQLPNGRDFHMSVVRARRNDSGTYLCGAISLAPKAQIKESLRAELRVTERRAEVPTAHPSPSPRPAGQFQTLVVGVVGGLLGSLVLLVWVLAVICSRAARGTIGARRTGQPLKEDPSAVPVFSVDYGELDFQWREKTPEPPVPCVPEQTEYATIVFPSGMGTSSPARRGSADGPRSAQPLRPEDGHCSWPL

B1: P-1148 (antibody, human IgG1, kappa, V domains shown)
VH: QVQLVQSGVEVKKPGASVKVSCKASGYTFTNYYMYWVRQAPGQGLEWMGGINPSNGGTNFAQKFQGRVTLTTDSSTTTAYMELKSLQFDDTAVYYCARRDYRFDMGFDYWGQGTTVTVSS
VL: EIVLTQSPATLSLSPGERATLSCRASQGVSTSGYSYLHWYQQKPGQAPRLLIYLASYRASGVPARFSGSGSGTDFTLTISSLEPEDFAVYYCQHSRDLPLTFGGGTKVEIKR
notes: Full-length IgG1 L234A/L235A/G237A, kappa
In the case of B1, the “PD1 blocking activity (reporter assay) EC50” value (human PD1 on cells [1]) is reported as 1.56 nM, the “PD1 blocking activity (reporter assay) Fold induction” value (human PD1 on cells [1]) is reported as 4.63 fold and the “PD1 blocking activity (reporter assay) Vmax” value (human PD1 on cells [1]) is reported as 48200 RLU. It also gave an EC50 [2] of 0.093 nM.

B2: P-1198 (antibody, human IgG1, kappa, V domains shown)
VH: EVQLLESGGGLVQPGGSLRLSCAASGFTFTNYYMYWVRQAPGKGLEWVSGINPSNGGTNFADKFKGRFTISRDSSKNTLYLQMNSLRAEDTAVYYCARRDYRFDMGFDYWGQGTLVTVSS
VL: B1 VL with A59E
notes: as for B1
For B2, the EC50 (human PD1 on cells [3]) was 0.087 nM and the EC50 (human PD1 on cells [4]) was 0.019 nM.

B3: P-1176 (antibody, human IgG1, kappa, V domains shown)
VH: B2 VH with F60Y, I70L, R72T
VL: B1 VL with Q27K, R58L, A59E
For B3, the “PD1 blocking activity (reporter assay) EC50” value (human PD1 on cells [5]) was 0.67 nM, the “PD1 blocking activity (reporter assay) Fold induction” value (human PD1 on cells [5]) was 5.27 fold and the “PD1 blocking activity (reporter assay) Vmax” value (human PD1 on cells [5]) was 52100 RLU.

B4: P-1177 (antibody, human IgG1, kappa, V domains shown)
VH: B2 VH with V48M, S49G, F60Y, S74N
VL: B1 VL with Q27K, R58L, A59E
For B4, the “PD1 blocking activity (reporter assay) EC50” value (human PD1 on cells [5]) was 1.51 nM, the “PD1 blocking activity (reporter assay) Fold induction” value (human PD1 on cells [5]) was 4.77 fold and the “PD1 blocking activity (reporter assay) Vmax” value (human PD1 on cells [5]) was 48100 RLU.

B5: P-1238 (antibody, human IgG1, kappa, V domains shown)
VH: B2 VH with V48M, S49G, F60Y, I70L, R72T
VL: B1 VL with A59E
In the case of B5, the “PD1 blockade reporter assay EC50” value (human PD1 on cells [6]) is reported as 0.73 nM.

B6: P-1178 (antibody, human IgG1, kappa, V domains shown)
VH: B2 VH with V48M, S49G, F60Y, I70L, R72T
VL: B1 VL with Q27K, R58L, A59E
B6 was tested, and the “PD1 blocking activity (reporter assay) EC50” value (human PD1 on cells [5]) was 0.68 nM, the “PD1 blocking activity (reporter assay) Fold induction” value (human PD1 on cells [5]) was 5.5 fold and the “PD1 blocking activity (reporter assay) Vmax” value (human PD1 on cells [5]) was 53100 RLU.

B7: P-1181 (antibody, human IgG1, kappa, V domains shown)
VH: B2 VH with A61N, K63S, F64V, S74N
VL: B1 VL with Q27K, R58L, A59E
B7 was tested, and the “drop in potency compared to P-0734” value (human PD1 on cells [6]) was 15 fold, the “PD1 blocking activity (reporter assay) EC50” value (human PD1 on cells [5]) was 9.18 nM and the “PD1 blocking activity (reporter assay) Fold induction” value (human PD1 on cells [5]) was 3.26 fold. For the same binder, the “PD1 blocking activity (reporter assay) Vmax” value (human PD1 on cells [5]) was 29600 RLU.

B8: P-1175 (antibody, human IgG1, kappa, V domains shown)
VH: B2 VH with F60Y, S74N
VL: B1 VL with Q27K, R58L, A59E
With B8 the “decrease in Emax and fold induction compared to P-0734” value (human PD1 on cells [6]) was 25%, the “reduction in potency (EC50) compared to P-0734” value (human PD1 on cells [6]) was 10 fold and the “PD1 blocking activity (reporter assay) EC50” value (human PD1 on cells [5]) was 6.21 nM. For the same binder, the “PD1 blocking activity (reporter assay) Fold induction” value (human PD1 on cells [5]) was 4.07 fold and the “PD1 blocking activity (reporter assay) Vmax” value (human PD1 on cells [5]) was 42000 RLU.

B9: P-1127 (antibody, human IgG1, kappa, V domains shown)
VH: B1 VH with A61N, Q62E, Q65K, G66N
VL: B1 VL with A59E
In the case of B9, the “PD1 blockade reporter assay EC50” value (human PD1 on cells [6]) is reported as 0.39 nM and 0.54 nM.

B10: P-1129 (antibody, human IgG1, kappa, V domains shown)
VH: B1 VH with A61N, Q62E, Q65K, G66N
VL: B1 VL
B10 was tested, and the “PD1 blockade reporter assay EC50” value (human PD1 on cells [6]) was 0.58 nM.

B11: P-1199 (antibody, human IgG1, kappa, V domains shown)
VH: B2 VH with R72T
VL: B1 VL with A59E
notes: as for B1
For B11, the EC50 (human PD1 on cells [3]) was 0.12 nM and the EC50 (human PD1 on cells [4]) was 0.016 nM.

B12: P-1174 (antibody, human IgG1, kappa, V domains shown)
VH: B1 VH
VL: B1 VL with A59E
With B12 the “PD1 blockade reporter assay EC50” value (human PD1 on cells [6]) was 0.67 nM.

B13: P-1151 (antibody, human IgG1, kappa, V domains shown)
VH: B1 VH with F60Y
VL: B1 VL
notes: as for B1
With B13 the “PD1 blocking activity (reporter assay) EC50” value (human PD1 on cells [1]) was 2.83 nM, the “PD1 blocking activity (reporter assay) Fold induction” value (human PD1 on cells [1]) was 4.15 fold and the “PD1 blocking activity (reporter assay) Vmax” value (human PD1 on cells [1]) was 44300 RLU. The EC50 [2] was 0.065 nM.

B14: P-1150 (antibody, human IgG1, kappa, V domains shown)
VH: B1 VH
VL: B1 VL with H38A
notes: as for B1
In the case of B14, the “PD1 blocking activity (reporter assay) EC50” value (human PD1 on cells [1]) is reported as 5.55 nM, the “PD1 blocking activity (reporter assay) Fold induction” value (human PD1 on cells [1]) is reported as 3.49 fold and the “PD1 blocking activity (reporter assay) Vmax” value (human PD1 on cells [1]) is reported as 36500 RLU. For the same binder, the EC50 [2] was 0.088 nM.

B15: P-1153 (antibody, human IgG1, kappa, V domains shown)
VH: B1 VH with F60Y
VL: B1 VL with H38A
notes: as for B1
With B15 the “decrease in PD1 blockade potency (EC50) compared to P-0734” value (human PD1 on cells [6]) was about 20 fold, the “PD1 blocking activity (reporter assay) EC50” value (human PD1 on cells [1]) was 9.88 nM and the “PD1 blocking activity (reporter assay) Fold induction” value (human PD1 on cells [1]) was 3.04 fold. For the same binder, the “PD1 blocking activity (reporter assay) Vmax” value (human PD1 on cells [1]) was 30800 RLU and the EC50 [2] was 0.11 nM.

B16: P-1201 (antibody, human IgG1, kappa, V domains shown)
VH: B2 VH with I70L, R72T
VL: B1 VL with A59E
B16 was tested, and the “PD1 blockade reporter assay EC50” value (human PD1 on cells [6]) was 1.28 nM, the EC50 (human PD1 on cells [3]) was 0.159 nM and the EC50 (human PD1 on cells [4]) was 0.033 nM.

B17: P-1271 (antibody, human IgG1, kappa, V domains shown)
VH: B1 VH with V9A, T77S, K84S, Q87R, F88S, T115L
VL: B1 VL with A59E
B17 was tested, and the “PD1 blockade reporter assay EC50” value (human PD1 on cells [6]) was 0.66 nM, the EC50 [2] was 0.0268 nM and the IC50 [7] was 1.42 nM.

B18: P-1193 (antibody, human IgG1, kappa, V domains shown)
VH: B2 VH with S74N
VL: B1 VL with A59E
notes: as for B1
B18 showed an EC50 (human PD1 on cells [3]) of 0.259 nM and an EC50 (human PD1 on cells [4]) of 0.07 nM.
